According to the DeepSol protein solubility set:

Assay: soluble on expression in E. coli; label from the status in PepcDB or PDB records

Sequence | soluble on expression in E. coli
MSLEKVLVIVGPTAVGKTALSIALAKKFNGEIISGDSMQVYRSLDIGTAKVTETEKEGIPHYLIDCREVSETYSAADFQKEGRQKIKEITEKGKLPIIVGGTGLYIQSLLYDFQLGSREIDDSPEIRETYNLFAEEKGNQALWLLLQQKDPLAANSIHFNNRKKVIRALEVFDKTGYSILTPKEKPARLYDYYLLGLETDRALLYERINQRVDQMMTEGLLEEAKQMFQQPHAQAAQGIGYKEFFPYFSGEQSLEMAVETVKQQSRRYAKRQLTWFRNRMAAHWWNLVQQPTDLPKLEKEVAEWLQQKESEEGHHHHHH | soluble
MCTRVVYSGSNGMVATGRSMDWKTDMHSNLWVFPRGMKRNGETGENSLEWTSRYGSVVTSAFEIASTDGMNEKGLVANLLWLPETEYPVRDKNKPGLAITAWVQYMLDNFATVEEAVAYIDEDTFQVVSDMMPDGSRLATLHLSISDATGDCAIFEYIGGKLTVYHSKEYKVMTNSPTYNKQLALSEYWKSIGGLSFLPGTNRAADRFARASFYINALPETDDERIAVASVFSVVRNASVPYGISTPESPEISTTQWRTVSESKNLRYFFESSLTPNTFWVNLKDFDLSEGAPVFKLSIANGEMYHGNTAKNFKTALPFKFMGVKG | not soluble
MGSDKIHHHHHHQSMKKEEVPQNISAFPLGKENTGFKQYFTGESWLAPLTGNKDLNVPMSNVTFEPGCRNNWHSHTGGQILIAVGGVGYYQERGKAARRLLPGDVVEIAPDIEHWHGAAPDSWFSHLAIGCNPQTNKNIWLEQVDDQQYAEATKDNGGTGLSATDPELDAIFGNFTKEVQQYGNLDTKTRLMVTLASNIASQAQTEYRMMLESALNAGITPIEIKEILYQAVAYAGMAKVMDFVGITNEALLAHGVRLPLEGQAVVSAETRFDKGLALQKSIFGERIDQMHKNAPENQKHIQRYLSANCFGDYQTRGGLDVKTRELLTFSILVSLGGCESQVKGHIQGNVNVGNNKDTLLAVVTQLLPYIGYPRTLNAIACLNEVIPEK | not soluble
MTPFKELQKFIHWKERFLRDYEKIEKGELEKIREEVKEMLGEEPDERLLKALRSMYVGGMEHRVEDEEIRYWTNWGGVKTYETFNRFPLLSDIELAFVFWALGKLFVPLLMHETGVKSEPFKKLSREEQEEAVLDELDTLWETQLTLILQALQFLDLKSISSEKPSSEG | not soluble
MIISAASDYRAAAQRTLPPFLFHYIDGGAYAEYTLRRNVEDLSQVALRQRVLKNMSDLSLETTLFNETLSMPVALAPVGLCGMYARRGEVQAAAAADAKGIPFTLSTVSVCPIEEVAPTIKRPMWFQLYVLRDRGFMRNALERAKAAGCSTLVFTVDMPTPGARYRDAHSGMSGPNAAMRRYWQAVMHPKWAWDVGLNGRPHDLGNISAYLGKPTGLEDYIGWLANNFDPSISWKDLEWIREFWDGPMVIKGILDPEDARDAVRFGADGIVVSNHGGRQLDGVLSSARALPAIADAVKGDIAILADSGIRNGLDVVRMIALGADTVLLGRAYLYALATAGKAGVANLLDLIEKEMKVAMTLTGAKSISEISGDSLVQELGKSLPAALAPMSKGDAA | not soluble
MGSDKIHHHHHHMDITPFLDKKSKTPLYEQLYTFFKQEISHARITKGTRLPSKRRLSSLLDVSTATIERAYEQLTAEGYVKSKPKIGWFAAEVEPGFPTAPDHFQQSVQPGLHQKNAPAIDFHQGSVDPTLFPFNAWRKSIVKSLDRYSGSFHTSGDPQGEYELRHMIARFVRLSRGVNCEPGQIIIGAGTTVLLQNLCLSLKPGTKIGFEEPGFHRSRRMFEANHMDVTPICSDAEGVLPDELYRQNPYLMYTTPSHQFPIGTIMTITRRQELLAWAAETNSFIIEDDYDGEFRYSGHPIPSLQGLDPNGRVIYLGTFSKSLLPSLRLSFMIVPPELMEPIQNNVQLMKQTVSAHSQLALADFIETGEWQKHINRMRSLYRKKHAVLLEAIRSELGNTVEILGKNSGLHILLRLLFPASEEEAIQAAADHGVTLYPVSPSYIEQTPFTSVLIGYGGLSEEDIRLGIQKLKTAWAPLISSY | not soluble
MPSMSPIDKSWSTCPYGFLDGTHQELRRIFHLWRCKKYRSQFTEEKKATYEEKLAASELFKDKKALYPSSVSQPFKGDYVEITKNPKYQKLNSLVEDKVLLADVVSKINRANGKGTPRIFLLTKKCLVLADQKTGQVKASVPLPDLSSVFVSTQNDGFFALKLREGATSAAKGDYLLSSDRLIEIITKLYCTGAASAERNQIKIDISDEFLVQFKQDKVCVKFIQGTPKNSNSVSCKRKNNRLLEVSVPSP | soluble
GPGSMFNVVLVEPEIPPNTGNVIRLCANTGARLHLIEPLGFPLDDAKMRRAGLDYHEYAQMRVHRDWDAFVAAEAPDPARMFAFTTRGSGRFHDRAFEPGDWFVFGAETRGLAPALVDRFAPEQRVRLPMRPGNRSLNLSNTVAVVVFEAWRQAGFEGGA | soluble
MSLAPRQVNCILRTNEHTQEFFGGSVKSYDSNQLASNSPIEDSRSEASCVHTSGLLLGIFDGHGGPACSQVISKRLMRYIAASLVPPDDLRQHVLNGAQSFSFLSCHNDKARCGYEIKELYEKSFHQFANELTNTTLAGFQMHQTLENAFIRLDQDLSREAIEMPSLRTMSVAMSGAVALVAHIDGPHLHVASVGDCSAVLGTVTDTGQWMAKKLTNEHNSDNVGEVRRLLSEHPATERDTVIRGERLLGQLAPLRAMGDFRYKWSREQLEQLVVPQFGEQVIAPYYLTPPYLSACPEITHHILTPRDKFLIIASDGLWDTMSAMQTVHLVGEHMYGKAFLQPLTLPKQDITLGEISQMLTTRKAGLQKKPLDRNAATHLIRNALGGTEYGVEHSKLSHMLSLPQDIVRLFRDDITITVVYFDSEYLEGHHHHHH | not soluble
MNISPKAIKVRNIWIGGTEPCICAPVVGEDDRKVLREAEEVCRKQPDLLEWRADFFRAIDDQERVLATANGLRNIAGEIPILFTIRSEREGGQPIPLNEAEVRRLIEAICRSGAIDLVDYELAYGERIADVRRMTEECSVWLVVSRHYFDGTPRKETLLADMRQAERYGADIAKVAVMPKSPEDVLVLLQATEEARRELAIPLITMAMGGLGAITRLAGWLFGSAVTFAVGNQSSAPGQIPIDDVRTVLSILQTYSR | soluble
MGSDKIHHHHHHMHMRVLIINTSERIGGAAIAANRLMEALKNNGIKTKMLVRDKQTDQISVVELKKSWWKVWQFIWERVVIWQANHFKKHNLFAVDIANTGTNITALPEFTQADVIHLHWINQGMLSLTDIRRIIQSGKPIVWTMHDMWPFTGICHYAGDCDKYATQCHNCPQLYKGSRKDIAYRTFQKKKKLFEGAQITFVACSRWLESLAKKSDLIKGQTITNIPNAINTNLFKPRDKKQAREKCHLPQDKKLLLFGSVKITDKRKGIDYLVSACKQIASSYPDFSKELGVVVFGNQAEQYASLFPFPIYPMNYVSNEKELVDIYNAVDLYVTPSLQDNLPNTIVEAMACGIPCIGFNVGGIPQMIDHLHNGYVAEYQSSKDLANGIHWALTEGEYESLSEEACRKAVSSYSESTIAKKYVEIYNKITGNHA | not soluble
MGSDKIHHHHHHMEDLNSLYYFTQVVEHGGFAPAGRALDMPKSKLSRRIADLEDRLGVRLLNRTSRHCSLTEIGQAYYNRCLAMRVEAEGAAEIIERNRSEPRGLVRISCPTTLLNSWVGPMLTRYMLKYPQVELFIESTNRRVDLLHEGFDIALRVRFPPLENTDMVMKVLSNSTQCLVGQPQYLAQLPKGFDPQLLGTLPSVHWGSAQREYQWELFQGEDNSRSIVIPHTPRMVTDDLFALRHFVVAGVGIAHLPRVAVREDLAAGRLVELIPDWHPRCGIVHAIFPSRRGLLPSVRALIDHLAEEFAISDMA | not soluble
MPQLQKEWFDTWFDTPYYHILYSNRDESEAEVFLTNLMNHMAVPKGASILDLPCGKGRHTLFLAEKGYTLTGADLSVASIALAQSHAPAGVTFLVHDLRKPAWNESFDYVLNLFTSFGYFETEAEDRAAFTTLSKALKSGGSLVIDFMNVTRAVNLLKEEETKVMEGIEFQLKRYVKDGYIHKEIRFEADNTPFFFTERVKALTLDDFKEFFTFAGLTLVDTFGSYQLDAYDAAESDRLIMIAKKLEHHHHHH | soluble
MRTRLLAILLAVWPAACATAEPACRDLTFEDTRYSLCEAQAGDDIRIFQTAPDGRPYGSFERINSALEGEGRQLAFAMNAGMYHADRRPVGLLIEEEVERAPLVTSAGPGNFGLLPNGVFCVGDGFRVIESRAFAAERPTCRHASQSGPMLVIGGELHPRFLVDSDSRYIRNGVGVSADGRRAVFAISNRPVTFHEFGRLFRDELGLPEALYFDGSISRLYDRGARRSDWGTPMGPIVGLVVPKPLEHHHHHH | not soluble
MTTNPIELESCIIDQIRCPECALTCLQKNIYRHMTQIHNWTTEDCQELIAAIKSEKKSRASSTSFVCCHCRMIFRSVKHLVQHKKMCTEQPQHDNEHLDVYIDEMIVEGEEEVVGINEYDINETKESTQKPSTSSGDSFEMNIPPHRQASRPIQPHHLTQECQIATIIEKPSKFSLMQLPGKYRGCNLKCPECSSTSESLDEFLLHCRQEHMSHDQKFNLEREFFQSRDQFKEWFDQRQEDTCTSLTKRTGHAGETLYRCHRVGKYQSVAKSRKSNPRKIDQTCTAYLKVTTEEDGSTWATGCFTHIGHDLDHKLLWLTESQEKYVRELIDLGWTSDQIFFFIRNEYKDYECKLKYISKNDIRNITVRYNREREKLGFLTDTAKSSAIPISLKERRAVAADSTKEPREEDDDEVKAKIPRMQSKPDNIEKATTSENNSAKHREQVVDSETAEEDEYINVVDVDTMPPNDAGKITIGLNF | not soluble
MKITHCKLKKEVQKEPLRSFVPEVTARSAADILGIHPDSAALFYRKIRTVANHRLALAADGVFEGPAGPGGSYFGGRRKGRRGRGAAGKAVVFGIPKRNGRAYTVAADNAEPETLPPAVKKKIMPDGIVYADSPGSRGKLDAGGFTRCRINRSKEFADRRNHINGIGDFWNQAKRALRKYNGIDRKPFPPFLRECEFRLNFGTPSRQLKILRDRCGILEHHHHHH | not soluble
QVQLQQPGTELVKPGASVKLSCKASGYTFTGFWIHWVKQRPGQGLEWIGHINPGNGGTNYNEKFKRMATLTVDKSSSTAYMQLSSLTSEDSAVYYCARSYSNYVRAMDYWGQGTSVTVSSAKTTAPSVYPLVPVCGGTTGSSVTLGCLVKGYFPEPVTLTWNSGSLSSGVHTFPALLQSGLYTLSSSVTVTSNTWPSQTITCNVAHPASSTKVDKKIEP | soluble
GMNRGKALQLVKPHLTEHRYQHTIGVMETAIDLAKLYGADQQKAELAAIFHDYAKFRDKNEMRTLIREKLSQQDILFYGDELLHAPCGAYYVREEVGIEDEDVLQAIRFHTTGRPNMSLLEKIIFLADYIEPNRQFPGVEKVRTQAKTDLNGAIISSLVNTITFLLKKNQPIYPDTLATYNQLLLEQK | soluble
MGSDKIHHHHHHMAANNTITFYDLALSTGATISPFVWATKYALKHKGFDLDVVPGGFTGILERTGGKTERLPAIVDDGEFVLDSWGIVEYLDAKYPDRPVLIPHESVAATLKALDNWFWNAAVGPWMFCFCQDYRDLSLPQDHEYVTHSREKMLGRKLEEVQAGREERLPKISAALEPLRAALAQHQWLGGSSPNYADYRIMGGILFTASVCKTPVLANDDPLRDWIERCLDLYGGLGRHPGLFPLFGLEQREGDPDLFNRAAGQGGIYKRNTGPESTRAETQRITEGMKK | not soluble
MSLLTEVETYVLSIIPSGPLKAEIAQKLEDVFAGKNTDLEALMEWLKTRPILSPLTKGILGFVFTLTVPSERGLQRRRFVQNALNGNGDPNNMDRAVKLYKKLKREITFHGAKEVALSYSTGALASCMGLIYNRMGTVTTEVAFGLVCATCEQIADSQHRSHRQMATITNPLIRHENRMVLASTTAKAMEQMAGSSEQAAEAMEVANQARQMVQAMRTIGTHPNSSAGLRDNLLENLQAYQKRMGVQMQRFK | soluble
GSSGSSGYQPTYNPTLPYKRPIPGGLSVGMSVYIQGMAKENMRRFHVNFAVGQDDGADVAFHFNPRFDGWDKVVFNTMQSGQWGKEEKKKSMPFQKGKHFELVFMVMPEHYKVVVNGNSFYEYGHRLPVQMVTHLQVDGDLELQSINFLGGQPAAAPY | soluble
